Test results taken from paper PMC6269598.
Values belong to the substance of their own block, whether it stands above or below them.

Columns and labels:
[1] = SEC; each antibody alone at 100 mg/mL (second study also 50 mg/mL) in 20 mM acetate, 9% sucrose, 0.01% polysorbate 80, pH 5.2, stored at 40°C (also 25°C) up to 12 weeks; diluted 100-fold before SE-HPLC; TSKgel G3000SWxl, 0.2 M sodium phosphate pH 6.8, column at 30°C; dimer and multimer defined by …
3BNC117 [2] = assay: SEC; each antibody alone, stored at 30°C; data not shown
3BNC117 [3] = assay: SEC; each antibody alone at 100 mg/mL (second study also 50 mg/mL) in 20 mM acetate, 9% sucrose, 0.01% polysorbate 80, pH 5.2, stored at 40°C (also 25°C) up to 12 weeks; diluted 100-fold before SE-HPLC; TSKgel G3000SWxl, 0.2 M sodium phosphate pH 6.8, column at 30°C; dimer and multimer defined by elution time relative to the monomer
PGT121 = assay: SEC; each antibody alone, stored at 30°C; data not shown

Substance: 3BNC117
increase of the dimer's share of the SE-HPLC area against day 0 (12 weeks, 40°C) [1]: ∼6% increase compared to day 0 at 40 °C

stoichiometry N (3BNC117 [2]): 2
rate of dimer formation at 40°C relative to PGT121 (3BNC117 [3]): 3.5 fold
stoichiometry N (3BNC117 [3]): 2
Substance: 3BNC117 (antibody)

Substance: PGT121
increase of the multimers' share of the SE-HPLC area against day 0 (12 weeks, 40°C) [1]: ∼3% increase compared to day 0 at 40 °C

stoichiometry N (PGT121): 2
Substance: PGT121 (antibody)
